The target in this assay is T1, α7 nicotinic-receptor (in rat brain slices / rat brain membranes) (rat, UniProt Q05941 23-502).
T1 construct: whole, on cells; also called α7 receptor; alpha-7 nicotinic acetylcholine receptor
Put plainly: [3H] ivermectin displacement, rat brain membranes (told in the legend of FIG. 6 only).

T1 sequence (Q05941 23-502): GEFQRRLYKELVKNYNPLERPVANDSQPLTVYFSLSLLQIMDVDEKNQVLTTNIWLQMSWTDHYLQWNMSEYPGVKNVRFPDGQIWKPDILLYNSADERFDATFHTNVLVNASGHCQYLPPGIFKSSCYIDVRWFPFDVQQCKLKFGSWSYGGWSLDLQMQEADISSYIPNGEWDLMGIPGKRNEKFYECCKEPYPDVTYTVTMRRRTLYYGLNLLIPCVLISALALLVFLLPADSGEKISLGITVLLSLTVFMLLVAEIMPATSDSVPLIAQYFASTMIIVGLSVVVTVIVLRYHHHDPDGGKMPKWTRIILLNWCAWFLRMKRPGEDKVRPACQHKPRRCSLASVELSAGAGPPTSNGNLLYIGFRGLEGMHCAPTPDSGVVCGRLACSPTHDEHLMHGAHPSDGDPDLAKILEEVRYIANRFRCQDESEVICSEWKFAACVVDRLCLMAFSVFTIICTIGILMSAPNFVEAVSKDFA

In the case of AEFHRWSSYMVHWK (also called linear T14) [T14 (AChE C-terminal peptide, linear)], the binding result is given as “binds”.

These data come from US20210388331A1 (NEURO BIO, published 2021).
